Drawing on paper PMC11139282, “Structure and activity of the septal peptidoglycan hydrolysis machinery crucial for bacterial cell division” (PLOS Biology, 2024), this text covers response (OmpC adjusted) for four variants.

B1: FtsX(His&Myc) [E. coli K-12] / FtsE(Flag) [E. coli K-12] (parent)
chain 1: MIRFEHVSKAYLGGRQALQGVTFHMQPGEMAFLTGHSGAGKSTLLKLICGIERPSAGKIWFSGHDITRLKNREVPFLRRQIGMIFQDHHLLMDRTVYDNVAIPLIIAGASGDDIRRRVSAALDKVGLLDKAKNFPIQLSGGEQQRVGIARAVVNKPAVLLADEPTGNLDDALSEGILRLFEEFNRVGVTVLMATHDINLISRRSYRMLTLSDGHLHGGVGHE
chain 2: MNKRDAINHIRQFGGRLDRFRKSVGGSGDGGRNAPKRAKSSPKPVNRKTNVFNEQVRYAFHGALQDLKSKPFATFLTVMVIAISLTLPSVCYMVYKNVNQAATQYYPSPQITVYLQKTLDDDAAAGVVAQLQAEQGVEKVNYLSREDALGEFRNWSGFGGALDMLEENPLPAVAVVIPKLDFQGTESLNTLRDRITQINGIDEVRMDDSWFARLAALTGLVGRVSAMIGVLMVAAVFLVIGNSVRLSIFARRDSINVQKLIGATDGFILRPFLYGGALLGFSGALLSLILSEILVLRLSSAVAEVAQVFGTKFDINGLSFDECLLLLLVCSMIGWVAAWLATVQHLRHFTPE

In this test the parent is B1. Briefly: western blot of membrane fraction, quantified (FtsE retained on membrane with FtsX). The settings on record: with FtsE(Flag) [E. coli K-12]; parent: 1.3; read off a plot. A general note: Immunoblotting shows a protein as a band on a membrane.
Turning to chain 2 MNKRDAINHIRQFGGRLDRFRKSVGGSGDGGRNAPKRAKSSPKPVNRKTNVFNEQVRYAFHGALQDLKSKPFATFLTVMVIAISLTLPSVCYMVYKNVNQAATQYYPSPQITVYLQKTLDDDAAAGVVAQLQAEQGVEKVNYLSREDALGEFRNWSGFGGALDMLEENPLPAVAVVIPKLDFQGTESLNTLRDRITQINGIDEVRMDDSWFARLAALTGLVGRVSAMIGVLMVAAVFLVIGNSVRLSIFARRDSINVQKLIGATDGAILRPFLYGGALLGFSGALLSLILSEILVLRLSSAVAEVAQVFGTKFDINGLSFDECLLLLLVCSMIGWVAAWLATVQHLRHFTPE [chain 2 F267A], the response (OmpC adjusted) was found to be 0.5. With chain 2 MNKRDAINHIRQFGGRLDRFRKSVGGSGDGGRNAPKRAKSSPKPVNRKTNVFNEQVRYAFHGALQDLKSKPFATFLTVMVIAISLTLPSVCYMVYKNVNQAATQYYPSPQITVYLQKTLDDDAAAGVVAQLQAEQGVEKVNYLSREDALGEFRNWSGFGGALDMLEENPLPAVAVVIPKLDFQGTESLNTLRDRITQINGIDEVRMDDSWFARLAALTGLVGRVSAMIGVLMVAAVFLVIGNSVRLSIFARRDSINVQKLDGATDGFILRPFLYGGALLGFSGALLSLILSEILVLRLSSAVAEVAQVFGTKFDINGLSFDECLLLLLVCSMIGWVAAWLATVQHLRHFTPE [chain 2 I261D], the response (OmpC adjusted) was 0.11. The figure for chain 2 MNKRDAINHIRQFGGRLDRFRKSVGGSGDGGRNAPKRAKSSPKPVNRKTNVFNEQVRYAFHGALQDLKSKPFATFLTVMVIAISLTLPSVCYMVYKNVNQAATQYYPSPQITVYLQKTLDDDAAAGVVAQLQAEQGVEKVNYLSREDALGEFRNWSGFGGALDMLEENPLPAVAVVIPKLDFQGTESLNTLRDRITQINGIDEVRMDDSWFARLAALTGLVGRVSAMIGVLMVAAVFLVIGNSVRLSIFARRDSINPQKLIGATDGFILRPFLYGGALLGFSGALLSLILSEILVLRLSSAVAEVAQVFGTKFDINGLSFDECLLLLLVCSMIGWVAAWLATVQHLRHFTPE [chain 2 V257P] is 0.38.

Take chain 2 MNKRDAINHIRQFGGRLDRFRKSVGGSGDGGRNAPKRAKSSPKPVNRKTNVFNEQVRYAFHGALQDLKSKPFATFLTVMVIAISLTLPSVCYMVYKNVNQAATQYYPSPQITVYLQKTLDDDAAAGVVAQLQAEQGVEKVNYLSREDALGEFRNWSGFGGALDMLEENPLPAVAVVIPKLDFQGTESLNTLRDRITQINGIDEVRMDDSWFARLAALTGLVGRVSAMIGVLMVAAVFLVIGNSVRLSIFARRDSINVQKLIGAKDGFILRPFLYGGALLGFSGALLSLILSEILVLRLSSAVAEVAQVFGTKFDINGLSFDECLLLLLVCSMIGWVAAWLATVQHLRHFTPE [chain 2 T264K]: the response (OmpC adjusted) stood at 0.51.
